According to patent publication US20250042994A1 (HAINAN SIMCERE ZAIMING PHARMACEUTICAL, published 2025):

T1: human CD19 on Raji cells (human, UniProt P15391 20-556)
T1 construct: whole, on cells
T1 sequence (looked up): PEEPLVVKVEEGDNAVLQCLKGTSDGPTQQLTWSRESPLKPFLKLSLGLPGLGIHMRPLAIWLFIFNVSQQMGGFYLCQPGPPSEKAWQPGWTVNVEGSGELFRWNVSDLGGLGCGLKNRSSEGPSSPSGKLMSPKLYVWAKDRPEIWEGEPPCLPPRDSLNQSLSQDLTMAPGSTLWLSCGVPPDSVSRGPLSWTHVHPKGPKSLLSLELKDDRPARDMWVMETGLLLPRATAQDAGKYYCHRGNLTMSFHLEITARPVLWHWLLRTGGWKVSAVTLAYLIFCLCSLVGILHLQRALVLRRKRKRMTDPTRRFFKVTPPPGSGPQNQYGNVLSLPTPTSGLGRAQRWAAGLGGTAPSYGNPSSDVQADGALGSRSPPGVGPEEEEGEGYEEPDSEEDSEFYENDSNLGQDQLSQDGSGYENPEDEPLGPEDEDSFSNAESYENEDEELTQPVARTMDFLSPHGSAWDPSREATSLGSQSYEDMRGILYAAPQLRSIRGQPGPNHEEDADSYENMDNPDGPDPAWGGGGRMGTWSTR

T2: cynomolgus monkey CD19 on peripheral blood B cells (cynomolgus monkey (Macaca fascicularis), UniProt A0A2K5W8L9 20-557)
T2 construct: whole, on cells; also called cynomolgus monkey B cells
T2 sequence: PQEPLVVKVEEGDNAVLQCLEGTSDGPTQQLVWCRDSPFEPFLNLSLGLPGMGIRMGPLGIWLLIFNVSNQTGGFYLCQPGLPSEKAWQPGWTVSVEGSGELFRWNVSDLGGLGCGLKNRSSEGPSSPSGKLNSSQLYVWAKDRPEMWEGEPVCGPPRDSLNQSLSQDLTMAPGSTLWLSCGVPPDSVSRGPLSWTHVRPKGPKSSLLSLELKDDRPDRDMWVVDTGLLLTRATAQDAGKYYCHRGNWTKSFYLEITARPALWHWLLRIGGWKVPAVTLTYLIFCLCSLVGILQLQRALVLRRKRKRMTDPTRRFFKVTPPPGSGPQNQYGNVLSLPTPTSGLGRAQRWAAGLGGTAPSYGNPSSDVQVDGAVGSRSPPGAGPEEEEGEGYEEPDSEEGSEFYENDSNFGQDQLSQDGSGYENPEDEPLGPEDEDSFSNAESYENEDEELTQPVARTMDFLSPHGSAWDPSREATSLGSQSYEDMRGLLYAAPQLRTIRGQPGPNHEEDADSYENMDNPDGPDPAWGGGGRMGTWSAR

T3: human CD19 on CHO-K1-human CD19 cells (human, UniProt P15391 20-556)
T3 construct: whole, on cells; also called CHO-K1-human CD19-2C8
T3 sequence (looked up): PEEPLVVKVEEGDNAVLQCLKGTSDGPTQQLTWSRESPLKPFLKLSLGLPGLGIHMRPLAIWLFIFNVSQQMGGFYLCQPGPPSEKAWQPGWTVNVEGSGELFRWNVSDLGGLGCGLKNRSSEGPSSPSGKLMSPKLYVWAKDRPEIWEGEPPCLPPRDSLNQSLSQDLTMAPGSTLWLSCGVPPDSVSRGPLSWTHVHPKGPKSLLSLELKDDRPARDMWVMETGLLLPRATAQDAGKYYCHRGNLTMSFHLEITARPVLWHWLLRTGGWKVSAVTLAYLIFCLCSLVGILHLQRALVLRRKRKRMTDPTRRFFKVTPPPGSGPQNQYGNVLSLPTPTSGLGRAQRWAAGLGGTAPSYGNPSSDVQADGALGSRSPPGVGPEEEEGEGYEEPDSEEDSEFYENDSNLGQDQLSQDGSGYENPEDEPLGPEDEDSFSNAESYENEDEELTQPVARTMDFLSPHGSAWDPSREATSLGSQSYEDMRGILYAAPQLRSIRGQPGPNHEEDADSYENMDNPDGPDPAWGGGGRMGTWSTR


What was measured:
human CD19 on Raji cells = biological target: T1, human CD19 on Raji cells; assay: FACS on Raji cells
[1] = biological target: T2, cynomolgus monkey CD19 on peripheral …; assay: FACS, cynomolgus PBMC, CD20+ B cells
[2] = biological target: T3, human CD19 on CHO-K1-human CD19 cells; assay: FACS on CHO-K1-human CD19 cells
[3] = biological target: T4, monkey CD19 on HEK293T-monkey CD19 cells (monkey); assay: FACS on HEK293T-monkey CD19 cells
T4 construct: whole, on cells
Method in brief: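 Antibody binding was read as MFI by flow cytometry and EC50 was taken from curve fitting. Before that, cells at 2×10⁶ cells/ml in PBS with 2% (w/w) BSA were exposed to samples for 2 h on ice and washed. Parental HEK293T cells were tested the same way.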

Binder | EC50 (human CD19 on Raji cells) [nM] | Maximum mean fluorescence intensity (human CD19 on Raji cells) | Proportion of chimeric antibody positive cells to B cells (%) at 1 nM [1] [%] | Proportion of chimeric antibody positive cells to B cells (%) at 10 nM [1] [%] | Proportion of chimeric antibody positive cells to B cells (%) at 100 nM [1] [%] | EC50 [2] [nM] | Maximum mean fluorescence intensity [2] | EC50 [3] [nM] | Maximum mean fluorescence intensity [3]
F4.48.12 (antibody, human IgG1, V domains shown, human-murine chimeric antibody, human IgG1) VH: QMQLKESGPGLVAPSQSLSITCTVSGFSLTDYGVSWIRQPPGKGLEWLGVIWGSGSTFYNSALTSRLSISKDNSKSQVFLKMNSLQTADTAMYFCAKHHYYGGSFAMDYWGQGTSVTVSS VL: DIQMTQASSSLSASLGDRVTISCKTSQDISNYLNWYQQKPDGTFKLLIHYTSRLHSGVPSRFSGSGSGSDYSLTISNLEREDIATYFCQQGNSLPYTFGGGTKLEMK | 0.55 | 29300 | 1 | 8 | 22 | 0.48 | 52700 | 184 | 14300
F4.35.5 (antibody, human IgG1, V domains shown, human-murine chimeric antibody, human IgG1) VH: EIQLQQSGPELVKPGASVKVSCKASGYAFTSYNMYWVKQSHGKSLEWIGYIDPYNGDTRYNQKFKGKATLTVDKSSSTAYMHLNSLTSEDSAVYYCTRSGTGRDYWGQGTTLTVSS VL: QIVLTQSPAIMSASPGEKVTMTCSASSSISYMFWFQQKPGSSPRLLIYDTSSLASGVPVRFSGSGSGTSYTLTISRMEAEDAATYYCQQWSNYPYTFGGGTKLEMK | 0.69 | 25000 | 1 | 2 | 3 | 1.08 | 50000 |  | 70
F4.21.2 (antibody, human IgG1, V domains shown, human-murine chimeric antibody, human IgG1) VH: QVQLKQSGPGLVQPSQSLSITCTVSGFSLSTYGVHWVRQSPGRGLEWLGVIWIGGTTDYNAAFISRLTISKDNSRGQVFFKMDSLQANDTAIYYCARKGYYKYDGGYYYAMDYWGQGTSVTVSS VL: DIQMTQSSSYLSVSLGGRVTITCKASDHINNWLAWYQQKPGNAPWLLISGATSLETGVPSRFSGSGSGKDYTLSISSLQTEDVATYYCQQYWSTPLTFGAGTKLELK | 2.69 | 30800 | 2 | 3 | 18 | 1.02 | 52600 | 9.1 | 39200
F4.18.13 (antibody, human IgG1, V domains shown, human-murine chimeric antibody, human IgG1) VH: QVQLQQSGPELVKPGASVKISCKASGYAFSSFWMNWVKQRPGEGLEWIGRIYPGDGDTNYNGKFKGKATLTADDSSSTAYMQLSSLTSVDSAVYFCAREVIAAVVTTDFDYWGQGTTLTVSS VL: DIQMTQTTSSLSASLGDRVTISCRTSQDISNYLNWYLQKPDGTVKLLIYYTSGLHSGVPSRFSGSGSGTDYSLTISNLEPEDIATYFCQQGKTLPYTFGGGTKLEIK | 1.31 | 35200 | 2 | 8 | 21 | 0.6 | 51600 | 26.2 | 19700
F4.41.1 (antibody, human IgG1, V domains shown, human-murine chimeric antibody, human IgG1) VH: QVQLQQSGAELVRPGTSVKVSCKASGYAFTNYLIEWVKQRPGQGLEWIGVINPGSGDTLYNEKFKGKATLTADKSSTTAYMQLSGLTSDVSAIYFCARSPPITTIVADYFDYWGQGTTLTVSS VL: DIQMTQTTSSLSASLGDRVTISCRASQDISNYLNWYQQKPDGTVKLLIYYTSRLHSGVPSRFSGSGSGADYSLTISNLEQEDIATYFCQQGKTLPYTFGGGTKLEIK | 1.02 | 23400 | 1 | 2 | 2 | 1.49 | 48600 |  | 545
F4.4.6 (antibody, human IgG1, V domains shown, human-murine chimeric antibody, human IgG1) VH: QVQLQQSGAELARPGASVKLSCKASGYTFTSYWMQWVKQRPGQGLEWIGAIYPGDGDSRYTQKFKGKATLTADKSSSTAYMQLSSLASEDSAVYYCARSTTTVLGNNFEYWGQGTTLTVSS VL: QIVLTQSPAIMSALPGEKVTMTCSASSSVSSMHWYQQKSGTSPKRWIYDTSKLASGVPARFSGSGSGTSYSLTISSMEAEDAATYYCQQWSSNPWTFGGGTKLEIK | 0.56 | 26000 | 2 | 2 | 3 | 0.08 | 14800 |  | 662
F4.37.6 (antibody, human IgG1, V domains shown, human-murine chimeric antibody, human IgG1) VH: QVQLQQSGAELARPGASVKLSCKASGYTFTSFWMQWLKQRPGQGLEWIGTIYPGDGDTRYTQKFKGKATLTADKSSNTAYMQLSSLASEDSAVYYCARGALSNYGGFAYWGQGTLVTVSA VL: NIVLTQSPASLAVSLGQRATISCRASESVDSYGHSFMHWYQQKPGQPPKLLIYLASNLESGVPARFSGSGSRTDFTLTIDPVEADDAATYYCQQNNEDPWTFGGGTKLEIK | 0.51 | 24600 | 2 | 2 | 6 | ~0.035 | 8490 |  | 58
F4.33.12 (antibody, human IgG1, V domains shown, human-murine chimeric antibody, human IgG1) VH: QVQLQQSGAELVRPGSSVKISCKGSGYAFSSYWMNWVKQRPGQGLEWIGQIYPGDGDTNYNGKFKGKATLTADKSSSTAYMQLSSLTSEDSAVYFCARAGFYYGSDSSMDYWGQGTSVTVSS VL: not shown | 2.6 | 28200 | 1 | 1 | 2 | 1.47 | 52500 |  | 50
F3.133.14 (antibody, human IgG1, V domains shown, human-murine chimeric antibody, human IgG1) VH: QVQLQQPGAELVMPGASVKLSCKASGYTFTNYWMHWVKQRPGQGLEWIGEIDPSDYYANYNQKFKGKATLTVDKSSSTAYMQLSSLTSEDSAVYYCARSHYYANSYNYWGQGTTLTVSS VL: EIELTQSPTTMAASPGEKITITCSASSSISSDYLHWYQQKPGFSPKLLIYRTSNLASGLPARFSGSGSGTSYSLTIGTMEAEDVATYYCQQGSSVPRMLTFGAGTKLELK | 0.93 | 34400 | 1 | 1 | 7 | 0.82 | 63100 | 2.47 | 138000
F4.22.6 (antibody, human IgG1, V domains shown, human-murine chimeric antibody, human IgG1) VH: QVQLQQSGPELVKPGASVKISCKASGYAFSSFWMNWVKQRPGQGLEWIGRIYPGDGDTNYNGKFKGKATLTADKSSTTAYMHLSSLTSVDSAVYFCTRSVITAVVDWYFDVWGAGTTVTVSS VL: QIVLSQSPAILSASPGEKVTLTCRASSSVNFMHWYQQKPGSSPKPWIYATSNLASGAPARFSGSGSGTSYSLTISRVEAEDAAAYYCQQWSSYPIFTFGSGTKLEIK | 0.67 | 27300 | 2 | 2 | 12 | 0.1 | 14700 | ~129 | 7380
